Reference: the Human Domainome abundance scans (Beltran et al. 2025)
± gives the uncertainty stated by the source.

B1: Transcriptional regulator ERG, residues 117 to 197; numbered along this chain, P11308 (parent)
chain: NMTTNERRVIVPADPTLWSTDHVRQWLEWAVKEYGLPDVNILLFQNIDGKELCKMTKDDFQRLTPSYNADILLSHLHYLRE

Variants of: B1
Assay: abundance fitness (aPCA) (normalised: wild type 0, dead -1); higher = more abundant; growth selection in yeast, the domain comes from the species named
Details: Homo sapiens

Variant	abundance fitness
M55F	-0.136 ± 0.12
M55A	-0.842 ± 0.18
M55T	-0.703 ± 0.18
M55D	-0.745 ± 0.34
M55W	-0.091 ± 0.069
F44L	-0.217 ± 0.047
F44S	-0.275 ± 0.052
F44R	-0.278 ± 0.04
F44W	-0.072 ± 0.045
F44N	-0.067 ± 0.082
F44T	-0.297 ± 0.065
F44V	-0.523 ± 0.053
F44P	-0.435 ± 0.1
F44Q	-0.181 ± 0.068
F44Y	-0.081 ± 0.1
D58K	-0.063 ± 0.12
D58L	-0.03 ± 0.056
D58W	-0.132 ± 0.066
D58Q	-0.088 ± 0.083
D58S	-0.1 ± 0.084
D58R	0.011 ± 0.046
D58F	-0.096 ± 0.16
D58I	0.055 ± 0.14
D58G	-0.078 ± 0.042

Variant	abundance fitness
D58C	-0.134 ± 0.092
D58A	0.039 ± 0.054
D58Y	0.004 ± 0.12
D58T	-0.072 ± 0.087
D58N	-0.169 ± 0.13
D58H	0.202 ± 0.18
D58P	0.103 ± 0.1
L63H	-0.18 ± 0.1
L63A	-0.238 ± 0.092
L63N	-0.571 ± 0.15
L63C	-0.215 ± 0.079
L63P	-0.567 ± 0.23
L63E	-0.691 ± 0.092
L63T	-0.476 ± 0.18
L63W	-0.179 ± 0.05
L63I	0.097 ± 0.15
L63R	-0.153 ± 0.041
L63G	-0.547 ± 0.056
L63Y	-0.027 ± 0.098
L63Q	-0.459 ± 0.17
L63K	-0.213 ± 0.073
L63F	-0.071 ± 0.11
L63M	-0.003 ± 0.067
L63V	-0.092 ± 0.041

Variant	abundance fitness
L63S	-0.46 ± 0.086
E51C	-0.127 ± 0.058
E51F	-0.277 ± 0.1
E51A	0.02 ± 0.04
E51Y	-0.026 ± 0.061
E51R	0.001 ± 0.033
E51D	-0.087 ± 0.062
E51H	-0.113 ± 0.077
E51Q	-0.017 ± 0.049
E51T	0.026 ± 0.052
E51V	-0.051 ± 0.037
E51M	-0.054 ± 0.056
E51K	-0.025 ± 0.061
E51G	0.022 ± 0.031
E51P	-0.897 ± 0.14
E51S	0 ± 0.038
E51W	-0.267 ± 0.042
E51N	-0.092 ± 0.096
E51I	-0.319 ± 0.16
Q61R	-0.026 ± 0.041
Q61D	-0.037 ± 0.12
Q61N	-0.06 ± 0.09
Q61S	-0.032 ± 0.05
Q61E	0.056 ± 0.061

Variant	abundance fitness
Q61W	-0.101 ± 0.065
Q61G	-0.021 ± 0.038
Q61V	-0.002 ± 0.047
Q61P	-0.617 ± 0.18
Q61T	0.105 ± 0.068
Q61H	0.173 ± 0.11
Q61K	0.044 ± 0.094
Q61C	-0.037 ± 0.079
Q61Y	-0.058 ± 0.1
Q61F	-0.042 ± 0.15
Q61I	0.193 ± 0.33
Q61M	0.096 ± 0.076
Q61A	0.011 ± 0.049
F60L	-0.093 ± 0.061
F60I	0.074 ± 0.11
F60T	-0.902 ± 0.32
F60E	-1.18 ± 0.39
F60A	-0.401 ± 0.08
F60Y	-0.365 ± 0.2
F60V	-0.083 ± 0.054
F60M	0.13 ± 0.089
F60Q	-1.05 ± 0.35
F60W	0.017 ± 0.062
F60D	-0.773 ± 0.41

Variant	abundance fitness
F60R	-0.866 ± 0.14
F60S	-0.536 ± 0.15
F60H	-0.633 ± 0.41
F60C	-0.306 ± 0.11
F60G	-0.971 ± 0.12
R62S	-0.095 ± 0.062
R62W	-0.26 ± 0.1
R62I	0.03 ± 0.077
R62N	0.015 ± 0.09
R62Q	0.067 ± 0.11
R62T	-0.162 ± 0.12
R62K	0.017 ± 0.092
R62L	-0.152 ± 0.069
R62V	-0.063 ± 0.061
R62H	-0.165 ± 0.14
R62D	0.02 ± 0.067
R62F	-0.112 ± 0.11
R62E	-0.073 ± 0.083
R62C	-0.072 ± 0.084
R62A	0.022 ± 0.054
R62M	0.097 ± 0.089
R62G	-0.06 ± 0.054
R62Y	-0.138 ± 0.091
R62P	-0.399 ± 0.13

Variant	abundance fitness
K50V	-0.009 ± 0.035
K50L	-0.054 ± 0.038
K50C	0.015 ± 0.059
K50A	0.044 ± 0.037
K50T	0.014 ± 0.048
K50W	-0.05 ± 0.04
K50N	0.032 ± 0.063
K50G	-0.089 ± 0.031
K50R	-0.032 ± 0.031
K50D	-0.004 ± 0.065
K50E	0.035 ± 0.048
K50H	-0.098 ± 0.084
K50P	-0.011 ± 0.054
K50I	-0.1 ± 0.063
K50Q	-0.022 ± 0.054
K54Q	-0.118 ± 0.12
K54G	-0.028 ± 0.037
K54P	-1.08 ± 0.32
K54T	-0.094 ± 0.084
K54D	0.021 ± 0.099
K54V	-0.238 ± 0.063
K54R	-0.049 ± 0.046
K54Y	-0.117 ± 0.099
K54C	-0.112 ± 0.095

Variant	abundance fitness
K54H	-0.071 ± 0.099
K54E	0.072 ± 0.055
K54L	-0.103 ± 0.055
K54W	-0.41 ± 0.09
K54N	-0.054 ± 0.09
K54F	-0.227 ± 0.14
K54I	-0.377 ± 0.17
K54S	0.092 ± 0.055
G49V	-0.895 ± 0.092
G49R	-0.8 ± 0.069
G49D	-0.874 ± 0.14
G49I	-1.4 ± 0.5
G49K	-0.945 ± 0.15
G49L	-0.833 ± 0.096
G49F	-0.816 ± 0.18
G49T	-1.11 ± 0.2
G49Q	-0.836 ± 0.19
G49Y	-1.14 ± 0.25
G49W	-1.04 ± 0.13
G49N	-1.08 ± 0.31
G49S	-0.737 ± 0.081
G49A	-0.837 ± 0.083
G49M	-0.678 ± 0.14
